Laboratory results from PMC12682024.

Molecular target: dopamine 2 receptor (D2R) with SmBiT tag (UniProt P14416)
Test: split reporter (BiFC, NanoBiT); NanoBiT in cells: SmBiT on D2R, LgBiT on Gβ; stimulation with dopamine; Gαo-free control = 0% interaction, WT Gαo = 100% interaction

Sequence of UniProt P14416 (P14416 whole entry): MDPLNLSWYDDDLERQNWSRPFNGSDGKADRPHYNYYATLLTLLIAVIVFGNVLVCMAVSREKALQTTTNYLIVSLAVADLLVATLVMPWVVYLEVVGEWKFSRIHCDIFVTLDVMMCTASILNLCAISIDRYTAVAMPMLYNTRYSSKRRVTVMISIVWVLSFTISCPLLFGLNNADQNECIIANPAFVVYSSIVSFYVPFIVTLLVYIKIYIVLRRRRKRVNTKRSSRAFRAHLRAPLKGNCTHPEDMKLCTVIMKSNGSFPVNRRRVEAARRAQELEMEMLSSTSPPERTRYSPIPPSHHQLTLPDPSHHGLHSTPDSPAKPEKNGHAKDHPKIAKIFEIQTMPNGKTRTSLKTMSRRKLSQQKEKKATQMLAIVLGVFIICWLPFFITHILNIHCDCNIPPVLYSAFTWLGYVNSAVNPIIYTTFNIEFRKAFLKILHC

fold change of receptor-Gβγ interaction against WT Gαo: 4 fold
Sequence: G protein heterotrimer of N76K Gαo with LgBiT-tagged Gβ and Gγ (from UniProt P09471 1-354; P62873 1-340; P59768 1-71) (complex)
